Target: apoptosis-inducing factor, mitochondrial (AIFM1) (human) (UniProt O95831)
Assay: cross-linking; sulfo-SDA (0.5 mM) photo-cross-linking of AIFM1 at 1 mg/ml, pre-incubated on ice with 1 mM NADH for 1 h to induce dimerization; 10 mM HEPES-NaOH pH 7.8, 150 mM NaCl, 4 mM MgCl2, 0.5 mM TCEP; UVEN UV activation 0-180 s; SDS-PAGE, and LC-MS/MS of the 32-s sample

“apoptosis-inducing factor, mitochondrial (AIFM1) (from UniProt O95831 103-613) (natural protein)” gave a stoichiometry N of 2.
